Columns and labels:
Assay in all cases: SEC
[1] = molecular target: SpyT-PAS2-mtDod (Mycobacterium tuberculosis)
[2] = molecular target: SpyT-mtDod (Mycobacterium tuberculosis)
[3] = molecular target: SpyT-mtDod-SnpT (Mycobacterium tuberculosis)
[4] = molecular target: mtDod-GSG-Lys (Mycobacterium tuberculosis)
[5] = molecular target: mtDod-PAS2-SpyT (Mycobacterium tuberculosis)
[6] = molecular target: mtDod-PAS-Met (Mycobacterium tuberculosis)
[7] = molecular target: mtDod-SpyT (Mycobacterium tuberculosis)
[8] = molecular target: mtDod-msfGFP-H8 (Mycobacterium tuberculosis | not stated)

Q: With SpyT-PAS2-mtDod as the substance, how does the stoichiometry N [1] read?
A: Its stoichiometry N is 12.

Q: With SpyT-mtDod as the substance, how does the stoichiometry N [2] read?
A: The stoichiometry N was 12.

Q: With SpyT-mtDod-SnpT as the substance, how does the stoichiometry N [3] read?
A: Its stoichiometry N is 12.

Q: How did the stoichiometry N [4] turn out when mtDod-GSG-Lys was run?
A: The stoichiometry N was 12.

Q: With mtDod-PAS2-SpyT as the substance, how does the stoichiometry N [5] read?
A: The stoichiometry N was 12.

Q: For mtDod-PAS-Met, which stoichiometry N [6] is on record?
A: The stoichiometry N was 12.

Q: For mtDod-SpyT, which stoichiometry N [7] is on record?
A: The stoichiometry N was 12.

Q: Which stoichiometry N [8] does the source give for mtDod-msfGFP-H8 here?
A: Its stoichiometry N is 12.

Source: article PMC7414021, “Dodecin as carrier protein for immunizations and bioengineering applications” (Scientific Reports, 2020)
